This assay concerns the target SARS-CoV-2野生型(WT) S蛋白 (病毒颗粒上) (SARS-CoV-2, UniProt P0DTC2 14-1273). As to the kind of experiment: cell-based or functional assay.

B1: 抗体09C7 (antibody, V domains shown)
VH: QVTLRESGPTLVKPKQTLTLTCTFSGFSLSTPGGGVGWIRQPPGKALEWLALIYWDDDKRYSPSLKSSLTITKDTSKNQVVLTMTNMDPVDTATYYCARLTAADTIFDCWGQGTLVTV
VL: QSALTQPASVSGSPGLSITISCTATSSDVGAYNYVSWYQQHPGQAPKLMIYDVSKRPSGVSNRFSGSKSANTASLTISGLQAEDEADYYCSSYTTTSVVFGGGTKLTVL
Consider B1, for which the “IC50, pseudovirus neutralisation (luciferase, Huh-7 cells)” value was found to be 4 ng/mL.
